Here are results for 1 molecule from article PMC2978286 (Journal of cardiovascular pharmacology, 2010).

For this assay, the target named is β2AR-YFP (UniProt P07550 1-413). The assay can be described thus: FRET or BRET. Background: BRET reads energy transfer from a luciferase to a nearby fluorophore.

B1: CXCR4-RLuc (receptor, UniProt P61073 1-352, looked up)
chain: MEGISIYTSDNYTEEMGSGDYDSMKEPCFREENANFNKIFLPTIYSIIFLTGIVGNGLVILVMGYQKKLRSMTDKYRLHLSVADLLFVITLPFWAVDAVANWYFGNFLCKAVHVIYTVNLYSSVLILAFISLDRYLAIVHATNSQRPRKLLAEKVVYVGVWIPALLLTIPDFIFANVSEADDRYICDRFYPNDLWVVVFQFQHIMVGLILPGIVILSCYCIIISKLSHSKGHQKRKALKTTVILILAFFACWLPYYIGISIDSFILLEIIKQGCEFENTVHKWISITEALAFFHCCLNPILYAFLGAKFKTSAQHALTSVSRGSSLKILSKGKRGGHSSVSTESESSSFHSS
For B1, the “BRET ratio (basal)” value was determined as 0.23; the “BRET ratio (with ISO and SDF-1)” value was 0.42.
